Results as given in PMC2408619.

What was measured:
[1] = molecular target: Biotinylated Prn-E (pertactin residues 38-640 with N-terminal biotinylation sequence) (B. bronchiseptica) (UniProt Q03035); assay: SPR; Biacore 3000, 25 °C; ~100 RU biotinylated Prn-E on a streptavidin chip; Mtd proteins injected in 150 mM NaCl, 50 mM Tris pH 8.0, 0.005% Tween 20 at 30 μl/min; single-site model, global fit, six concentrations, duplicate
[2] = molecular target: His-tagged ectodomain of B. bronchiseptica pertactin (Prn-E; residues 38-640) (B. bronchiseptica) (UniProt Q03035); assay: pull-down; varying concentrations of Mtd incubated with 80 μM His-tagged Prn-E (5 min, 25 °C) before adding Ni2+-NTA beads; apparent Kd of Mtd-M1 estimated against Mtd-P6 with the Langmuir isotherm
[3] = molecular target: Biotinylated Prn-E (pertactin residues 38-640 with N-terminal biotinylation sequence) (B. bronchiseptica) (UniProt Q03035); assay: SPR; details: natural protein
[4] = molecular target: His-tagged ectodomain of B. bronchiseptica pertactin (Prn-E; residues 38-640) (B. bronchiseptica) (UniProt Q03035); assay: not stated; unpublished data; stoichiometry of Mtd-P6 with pertactin
[5] = molecular target: Pertactin (Prn-E) ectodomain (Bordetella bronchiseptica) (UniProt Q03035); assay: ITC; details: cited from earlier work

What does the source list for “Bordetella bacteriophage major tropism determinant variant Mtd-M1 (from UniProt Q775D6 1-381) (natural protein)”?
Kd [1]: > 450 µM; Kd [2]: 500 µM

Which koff [3] does the source give for “Bordetella bacteriophage major tropism determinant variant Mtd-P6 (from UniProt Q775D6 1-381)” here?
The koff was 0.112 s⁻¹.

Which results are given for “Bordetella bacteriophage major tropism determinant variant Mtd-P6 (from UniProt Q775D6 1-381) (natural protein)”?
stoichiometry N (Mtd-P6 protomers per pertactin) [4]: 3; Kd [1]: 5.19 µM; kon [1]: 10000 M⁻¹ s⁻¹

Which Kd [5] does the source give for Mtd-P1 (from UniProt Q775D6) here?
The Kd was 3.04 µM.
